Laboratory results: patent US20190352390A1

Molecular target: IL-37 expressed by splenocytes of IL-37 transgenic (IL-37tg) mice (human), Q9NZH6
Assay: cell-based or functional assay

Chain of IL-37 expressed by splenocytes of IL-37 transgenic (IL-37tg) mice (human), Q9NZH6 (Q9NZH6 whole entry): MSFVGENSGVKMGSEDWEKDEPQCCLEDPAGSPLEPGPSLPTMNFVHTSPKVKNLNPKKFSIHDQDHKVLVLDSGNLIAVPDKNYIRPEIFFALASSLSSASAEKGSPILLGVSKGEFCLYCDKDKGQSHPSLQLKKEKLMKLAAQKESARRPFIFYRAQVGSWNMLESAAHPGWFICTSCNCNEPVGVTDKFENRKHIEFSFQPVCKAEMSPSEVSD

IL-6 abundance in supernatant of LPS-stimulated IL-37tg mouse splenocytes (ELISA)	Binder
< 40%	Antibody RF3 (antibody, V domains shown) VL: DVVMTQTPLSLPVSLGDQASISCRSSQSLVHSNGNTYLHWYLQKPGQSPKLLIYIVSNRFSGVPDRFGGSGSGTDFTLKISRVEAEDLGVYFCSQSTHIPYTFGGGTKLEMK VH: QVQLQQPGAELVRPGASVKLSCKASGYTFTNYWMNWWKQRPGQGLEWIGMIDPSDSETHYNQVFKDKATLTVDISSTTAYMHLSSLTSEDSAVYYCARDFGWGQGTLVTVSA
< 40%	Antibody RF1 (antibody, V domains shown) VL: DVVMTQTPLSLPVSLGDQASMSCRSSQSLVHSNGDSYLHWYLQKPGQSPKLLIYKVSNRLSGVPDRFSGSGSGTDFTLKISRVEAEDLGIYFCSQSTHVPYTFGGGTKLEIK VH: QVQLQQPGAELVKPGASVKMSCKASGYTFTNYWLHWVMQRPGQGLEWIGMIDPSDSFTTYNQKFKGKATLTVDTSSSTAFMQLSSLTSEDSAVYYCTTVDHWGRGTTLTVSS
